Measured values: patent publication US6566047B1, “Method for identifying neurite-growth promoting agents” (The Regents of the University of Colorado, priority 1998, dated 2003)

B1: SemaIV: recombinant semaphorin IV, repellent and putative tumor suppressor (protein, UniProt Q13275 19-785, looked up)
Semaphorin-3F: SFPTQDHLPATPRVRLSFKELKATGTAHFFNFLLNTTDYRILLKDEDHDRMYVGSKDYVLSLDLHDINREPLIIHWAASPQRIEECVLSGKDVNGECGNFVRLIQPWNRTHLYVCGTGAYNPMCTYVNRGRRAQATPWTQTQAVRGRGSRATDGALRPMPTAPRQDYIFYLEPERLESGKGKCPYDPKLDTASALINEELYAGVYIDFMGTDAAIFRTLGKQTAMRTDQYNSRWLNDPSFIHAELIPDSAERNDDKLYFFFRERSAEAPQSPAVYARIGRICLNDDGGHCCLVNKWSTFLKARLVCSVPGEDGIETHFDELQDVFVQQTQDVRNPVIYAVFTSSGSVFRGSAVCVYSMADIRMVFNGPFAHKEGPNYQWMPFSGKMPYPRPGTCPGGTFTPSMKSTKDYPDEVINFMRSHPLMYQAVYPLQRRPLVVRTGAPYRLTTIAVDQVDAADGRYEVLFLGTDRGTVQKVIVLPKDDQELEELMLEEVEVFKDPAPVKTMTISSKRQQLYVASAVGVTHLSLHRCQAYGAACADCCLARDPYCAWDGQACSRYTASSKRRSRRQDVRHGNPIRQCRGFNSNANKNAVESVQYGVAGSAAFLECQPRSPQATVKWLFQRDPGDRRREIRAEDRFLRTEQGLLLRALQLSDRGLYSCTATENNFKHVVTRVQLHVLGRDAVHAALFPPLSMSAPPPPGAGPPTPPYQELAQLLAQPEVGLIHQYCQGYWRHVPPSPREAPGAPRSPEPQDQKKPRNRRHHPPDT
B2: BDNF: brain-derived neurotrophic factor (protein, UniProt P23560 19-247, looked up)
Neurotrophic factor BDNF …: APMKEANIRGQGGLAYPGVRTHGTLESVNGPKAGSRGLTSLADTFEHVIEELLDEDQKVRPNEENNKDADLYTSRVMLSSQVPLEPPLLFLLEEYKNYLDAANMSMRVRRHSDPARRGELSVCDSISEWVTAADKKTAVDMSGGTVTVLEKVPVSKGQLKQYFYETKCNPMGYTKEGCRGIDKRHWNSQCRTTQSYVRALTMDSKKRIGWRFIRIDTSCVCTLTIKRGR

Assays:
MAT-Lu cells = experiment: Pseudopod morphometry (pseudopod length assay), MAT-Lu cells; type: cell-based, rat; details: typically 15 min exposure
Method: Pseudopod Morphometry. To study the effects of various agents on pseudopods on a short-term basis, we measured pseudopod lengths. Cells plated in 35-mm diameter dishes at low density (1×10^4 per dish) were incubated overnight, tie medium was changed, and the experiments were run four hours later. First, cultures were shifted to serum-free medium, which was replaced one hour later by serum-free medium with or without the various agents (thrombin, AA or HETEs). Care was taken to avoid heat and light inactivation of the eicosanoids. Culture dishes were placed on a Zeiss inverted microscope equipped with a heated stage and viewed with a 16×phase contrast objective lens. Randomly selected fields of the cultures, containing generally about 20 cells each, were recorded, digitized and stored in the computer at the onset of the experiment and at different times thereafter.
In some cases, individual cells were monitored over different periods of time immediately after introduction of the reagent, either by mixing it into the medium or by applying it locally to one end of the cell. […] Cell morphology was recorded, and the captured images were analyzed with a Power Macintosh computer using NIH Image. Cell process length was measured from the center of the nucleus to the end of the process. […]

cPLA2 = experiment: PLA2 activity (14C-AA release) in MAT-Lu cells; type: biochemical, rat; details: dose-dependent
Method: MAT-Lu cells were plated at a density of 0.5×10^6 cells per flask (T-75) and grown as detailed above to approximately 25% confluency. On the day before the experiments, the serum level in the medium was dropped to 1%. Cells were fed with fresh 1% serum-medium 4 hrs prior to harvest. For harvesting, cells were rinsed with Ca^++,Mg^++-free HBSS, covered with 2 ml cold Ca^++-free modified Krebs buffer (220 mM sucrose, 50 mM NaCl, 5 mM KCl, 22 mM HEPES, 10 mM glucose. 1.2 mM NaH2PO4 and 1.2 mM MgCl2, pH 7.3), and placed on ice. Cells were scraped off, pelleted for 5 min at 200 rpm and re-suspended in a minimal volume of Krebs buffer. Aliquots were used to determine protein concentration (Biorad Assay) and phopholipase activity. To measure PLA2 activity 10-12 μg of cell protein was incubated with or without thrombin for 10 min on ice, ^14C-AA-labeled phospholipid substrate (7 μM. 40-60 mCi/mmol) was added, and the mixture was transferred to 37° for 20 min. The reaction was stopped by adding cold cliloroform/methanol (1:2 v/v). Lipid extraction followed by thin-layer chromatography (Negre-Aminou et al., J Neurochem 67:2599-2608 (1996)) isolated the reaction product (identified by co-migration with AA standard), which was then scraped off the plates and analyzed in a scintillation spectrometer (Beckman). In some experiments, especially those involving ^14C-AA-phosphatidylinositol as substrate, the diacylglycerol-containing band (identified by co-migration of standard) also was scraped and counted in order to measure phospholipase C (PLC) activity.

growth cone PLA2 = experiment: PLA2 assay in growth cone particles (GCPs); type: biochemical, rat; details: GCPs
Method: Growth Cone Particle (GCP) Isolation. GCPs were prepared as described by Pfenninger et al. (1983) and modified by Lohse et al., Dev. Brain Res., 96:38-96 (1996). Briefly, 18-day fetal brains were homogenized in approximately 8 volumes of 0.32 M sucrose containing 1 mM MgCl2, 2 mM TES buffer, pH 7.3, and 3 μM aprotinin. A low-speed supernatant (1,660 g×15 min) was loaded onto a discontinuous sucrose density gradient With steps of 0.83 M and 2.66 M sucrose containing MgCl2 and TES. The gradients were spun to equilibrium at 242,000 g for 40 min in a vertical rotor (Vti50, Beckman). The GCP fraction at the 0.32/0.83 M sucrose interface was collected and used for the experiments described below.
All assays were run in triplicate.

Molecule	effect of agent alone on pseudopod length (MAT-Lu cells)	increase of cPLA2-PE activity (cPLA2)	activation of growth cone cPLA2/PLA2 (growth cone PLA2)	net activity (pmol/min/mg protein) (growth cone PLA2; Table 3c, substrate PI, BDNF 100, IGF-1 0.75, insulin 1, thrombin 200 nM, control 159 ± 6.2)
B1	causes pseudopod retraction in MAT-Lu cells	several fold	dose-dependent activation of growth cone cPLA2	
B2			did not significantly stimulate PLA2 activity	164 ± 10.6
